According to PMC10140023 (2023):

T1: GFP-POLD1 (human, UniProt P28340 1-1107)
T1 chain: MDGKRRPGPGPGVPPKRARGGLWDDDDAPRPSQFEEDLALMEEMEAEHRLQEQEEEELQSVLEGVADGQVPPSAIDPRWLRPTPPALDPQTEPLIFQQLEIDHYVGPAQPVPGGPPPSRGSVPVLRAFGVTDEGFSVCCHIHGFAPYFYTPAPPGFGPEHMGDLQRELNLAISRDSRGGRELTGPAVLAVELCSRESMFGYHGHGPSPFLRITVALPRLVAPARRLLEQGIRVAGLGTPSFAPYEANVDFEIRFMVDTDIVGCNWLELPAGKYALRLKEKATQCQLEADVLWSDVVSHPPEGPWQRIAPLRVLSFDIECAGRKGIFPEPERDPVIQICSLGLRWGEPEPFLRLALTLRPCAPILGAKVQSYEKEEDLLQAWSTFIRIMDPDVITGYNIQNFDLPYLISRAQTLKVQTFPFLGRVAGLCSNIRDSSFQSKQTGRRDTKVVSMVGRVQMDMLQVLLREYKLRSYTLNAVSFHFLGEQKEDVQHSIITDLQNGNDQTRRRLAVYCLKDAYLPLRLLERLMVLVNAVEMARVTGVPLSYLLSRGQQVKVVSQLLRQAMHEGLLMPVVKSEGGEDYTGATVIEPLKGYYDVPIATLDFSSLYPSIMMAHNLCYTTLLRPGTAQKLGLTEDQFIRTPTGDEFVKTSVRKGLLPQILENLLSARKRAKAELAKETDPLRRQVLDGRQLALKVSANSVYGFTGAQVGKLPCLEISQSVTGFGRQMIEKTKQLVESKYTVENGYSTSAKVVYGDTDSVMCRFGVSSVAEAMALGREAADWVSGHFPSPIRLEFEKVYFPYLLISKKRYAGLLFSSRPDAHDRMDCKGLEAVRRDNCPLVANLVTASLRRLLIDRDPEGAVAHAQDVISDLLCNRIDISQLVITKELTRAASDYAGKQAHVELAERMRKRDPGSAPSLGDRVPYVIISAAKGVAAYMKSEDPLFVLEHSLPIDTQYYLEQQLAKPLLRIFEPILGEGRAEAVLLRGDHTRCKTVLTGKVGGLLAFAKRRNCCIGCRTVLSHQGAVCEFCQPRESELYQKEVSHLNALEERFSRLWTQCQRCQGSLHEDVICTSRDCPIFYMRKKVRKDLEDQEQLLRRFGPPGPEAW


Tests used:
[1] = biological target: GFP-FBXW7α (human, UniProt Q969H0 1-707); experiment: MST
[2] = biological target: T1, GFP-POLD1; experiment: MST

GFP-FBXW7α, sequence (Q969H0 whole entry): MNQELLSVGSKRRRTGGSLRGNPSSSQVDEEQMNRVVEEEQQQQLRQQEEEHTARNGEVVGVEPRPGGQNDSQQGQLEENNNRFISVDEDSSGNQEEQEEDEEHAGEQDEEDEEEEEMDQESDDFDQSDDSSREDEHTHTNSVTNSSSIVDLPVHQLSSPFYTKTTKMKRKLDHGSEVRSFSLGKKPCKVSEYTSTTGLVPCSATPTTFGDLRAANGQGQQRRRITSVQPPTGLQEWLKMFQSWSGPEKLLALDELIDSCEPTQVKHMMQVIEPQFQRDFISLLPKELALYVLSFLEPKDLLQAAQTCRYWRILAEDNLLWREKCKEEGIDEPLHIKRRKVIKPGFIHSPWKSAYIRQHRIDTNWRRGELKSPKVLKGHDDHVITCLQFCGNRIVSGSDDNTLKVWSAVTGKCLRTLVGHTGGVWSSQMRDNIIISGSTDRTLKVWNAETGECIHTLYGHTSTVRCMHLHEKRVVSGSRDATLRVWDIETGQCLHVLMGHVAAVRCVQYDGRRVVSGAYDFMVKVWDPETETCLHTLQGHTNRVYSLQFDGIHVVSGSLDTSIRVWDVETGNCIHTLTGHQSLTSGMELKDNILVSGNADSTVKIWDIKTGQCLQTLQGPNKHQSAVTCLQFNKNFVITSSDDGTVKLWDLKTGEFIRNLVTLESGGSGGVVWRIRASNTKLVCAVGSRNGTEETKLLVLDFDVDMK

Kd [1] [µM]	Kd [2] [µM]	Binder
110	30.8	APSEDIWKKFELLPDPPLSP [MB1-T58D peptide]
2160	49.9	APSEDIWKKFELLPAPPLSP [MB1-T58A peptide]
700	34.5	APSEDIWKKFELLPTPPLSP [MYC-MB1 (WT) peptide]
